Where “and” joins values, the source holds several entries; their conditions need not be identical. Equal entries are not always repeated. Numbered stars: 1 amine (or outer) side, 2 acyl side, 3 side chain; on linkers, the order of the positions; unused ones are H or OH. Bridge positions count the residues as written; N and C are the ends. Square brackets hold non-standard residues; d marks the D form. Primed or numbered codes have the meaning given here. Side chains are listed from the residue outwards. * marks the point of attachment. Ttds″ = 1,13-diamino-4,7,10-trioxatridecan-succinamic acid spacer, O=C(CCC(=O)[*:2])NCCCOCCOCCOCCCN[*:1]; TBMB(SCH2CH2NH-DOTA) = O=C(O)CN1CCN(CC(=O)O)CCN(CC(=O)NCCSCc2cc(C[*:1])cc(C[*:2])c2)CCN(CC(=O)O)CC1; Ttds = 1,13-diamino-4,7,10-trioxatridecan-succinamic acid, O=C(CCC(=O)[*:2])NCCCOCCOCCOCCCN[*:1]; DOTA = O=C(O)CN1CCN(CC(=O)O)CCN(CC(=O)*)CCN(CC(=O)O)CC1; Biotin = O=C1N[C@H]2[C@H](CS[C@H]2CCCCC(=O)*)N1; mXylylene = c1cc(C[*:1])cc(C[*:2])c1; Pentanesulfonyl = CCCCCS(=O)(=O)*; 3Amb = NCc1cccc(C(=O)O)c1; 4Amb = NCc1ccc(C(=O)O)cc1; DOTA′ = not defined here; Nle = CCCC[C@H](N)C(=O)O; Apr = not defined here; Hexanoyl = CCCCCC(=O)*; βAla = NCCC(=O)O; Sar = CNCC(=O)O
B1: Hex-[Cys(tMeBn(DOTA-AET))-Pro-Pro-Thr-Gln-Phe-AET] (peptide)
peptide: CPPTQFX
modifications: not fully specified; N-term Hex; X7 = AET (2-aminoethanethiol, no carboxyl group); Cys1/AET7 thioether-bridged by tMeBn carrying DOTA-AET
notes: also called 3BP-3654
B2: H-Met-[Cys(3MeBn)-Pro-Pro-Thr-Glu-Phe-Cys]-Asp-His-Phe-Arg-Asp-Ttds-Lys(Bio)-NH2 (peptide)
peptide: H-MCPPTEFCDHFRD[Ttds″]K(Biotin)-NH2
modifications: linker 2-8 via mXylylene
SMILES: CSCC[C@H](N)C(=O)N[C@H]1CSCc2cccc(c2)CSC[C@@H](C(=O)N[C@@H](CC(=O)O)C(=O)N[C@@H](Cc2c[nH]cn2)C(=O)N[C@@H](Cc2ccccc2)C(=O)N[C@@H](CCCNC(=N)N)C(=O)N[C@@H](CC(=O)O)C(=O)NCCCOCCOCCOCCCNC(=O)CCC(=O)N[C@@H](CCCCNC(=O)CCCC[C@@H]2SC[C@@H]3NC(=O)N[C@@H]32)C(N)=O)NC(=O)[C@H](Cc2ccccc2)NC(=O)[C@H](CCC(=O)O)NC(=O)[C@H]([C@@H](C)O)NC(=O)[C@@H]2CCCN2C(=O)[C@@H]2CCCN2C1=O
notes: also called 3BP-2881
B3: Hex-[Cys(3MeBn)-Pro-Pro-Thr-Glu-Phe-Cys]-Bal-OH (peptide)
peptide: Hexanoyl-CPPTEFC[βAla]-OH
modifications: linker 1-7 via mXylylene
SMILES: CCCCCC(=O)N[C@H]1CSCc2cccc(c2)CSC[C@@H](C(=O)NCCC(=O)O)NC(=O)[C@H](Cc2ccccc2)NC(=O)[C@H](CCC(=O)O)NC(=O)[C@H]([C@@H](C)O)NC(=O)[C@@H]2CCCN2C(=O)[C@@H]2CCCN2C1=O
notes: also called 3BP-3371
B4: Hex-[Cys(3MeBn)-Pro-Pro-Thr-Glu-Phe-Cys]-Asp-NH2 (peptide)
peptide: Hexanoyl-CPPTEFCD-NH2
modifications: linker 1-7 via mXylylene
SMILES: CCCCCC(=O)N[C@H]1CSCc2cccc(c2)CSC[C@@H](C(=O)N[C@@H](CC(=O)O)C(N)=O)NC(=O)[C@H](Cc2ccccc2)NC(=O)[C@H](CCC(=O)O)NC(=O)[C@H]([C@@H](C)O)NC(=O)[C@@H]2CCCN2C(=O)[C@@H]2CCCN2C1=O
B5: DOTA-Ttds-Nle-[Cys(3MeBn)-Pro-Pro-Thr-Gln-Phe-Cys]-Asp-NH2 (peptide)
peptide: {DOTA}-[Ttds][Nle]CPPTQFCD-NH2
modifications: linker 3-9 via mXylylene
SMILES: CCCC[C@H](NC(=O)CCC(=O)NCCCOCCOCCOCCCNC(=O)CN1CCN(CC(=O)O)CCN(CC(=O)O)CCN(CC(=O)O)CC1)C(=O)N[C@H]1CSCc2cccc(c2)CSC[C@@H](C(=O)N[C@@H](CC(=O)O)C(N)=O)NC(=O)[C@H](Cc2ccccc2)NC(=O)[C@H](CCC(N)=O)NC(=O)[C@H]([C@@H](C)O)NC(=O)[C@@H]2CCCN2C(=O)[C@@H]2CCCN2C1=O
notes: also called 3BP-3401
B6: Hex-[Cys(tMeBn(DOTA-AET))-Nmg-Pro-Thr-Gln-Phe-Cys]-OH (peptide)
peptide: Hexanoyl-C[Sar]PTQFC-OH
modifications: linker 1-7 via TBMB(SCH2CH2NH-DOTA)
SMILES: CCCCCC(=O)N[C@H]1CSCc2cc(CSCCNC(=O)CN3CCN(CC(=O)O)CCN(CC(=O)O)CCN(CC(=O)O)CC3)cc(c2)CSC[C@@H](C(=O)O)NC(=O)[C@H](Cc2ccccc2)NC(=O)[C@H](CCC(N)=O)NC(=O)[C@H]([C@@H](C)O)NC(=O)[C@@H]2CCCN2C(=O)CN(C)C1=O
notes: also called 3BP-3678
B7: Hex-[Cys(3MeBn)-Pro-Pro-Thr-Glu(NH-Apr-DOTA′)-Phe-Cys]-Asp-NH2 (peptide)
peptide: Hexanoyl-CPPTE([Apr-DOTA′])FCD-NH2
modifications: linker 1-7 via mXylylene; reading uncertain; also: printed as Hex-[Cys(3MeBn)-Pro-Pro-Thr-Glu(NH-Apr-DOTA′)-Phe-Cys]-Asp-NH2
B8: Hex-[Cys(3MeBn)-Pro-Pro-Thr-Glu-Phe-Cys]-Asp-His-Phe-Arg-Asp-NH2 (peptide)
peptide: Hexanoyl-CPPTEFCDHFRD-NH2
modifications: linker 1-7 via mXylylene
SMILES: CCCCCC(=O)N[C@H]1CSCc2cccc(c2)CSC[C@@H](C(=O)N[C@@H](CC(=O)O)C(=O)N[C@@H](Cc2c[nH]cn2)C(=O)N[C@@H](Cc2ccccc2)C(=O)N[C@@H](CCCNC(=N)N)C(=O)N[C@@H](CC(=O)O)C(N)=O)NC(=O)[C@H](Cc2ccccc2)NC(=O)[C@H](CCC(=O)O)NC(=O)[C@H]([C@@H](C)O)NC(=O)[C@@H]2CCCN2C(=O)[C@@H]2CCCN2C1=O
B9: DOTA-Ttds-Nle-[Cys(3MeBn)-Pro-Pro-Thr-Glu-Phe-Cys]-Asp-Pamb-Arg-NH2 (peptide)
peptide: {DOTA}-[Ttds][Nle]CPPTEFCD[4Amb]R-NH2
modifications: linker 3-9 via mXylylene
SMILES: CCCC[C@H](NC(=O)CCC(=O)NCCCOCCOCCOCCCNC(=O)CN1CCN(CC(=O)O)CCN(CC(=O)O)CCN(CC(=O)O)CC1)C(=O)N[C@H]1CSCc2cccc(c2)CSC[C@@H](C(=O)N[C@@H](CC(=O)O)C(=O)NCc2ccc(C(=O)N[C@@H](CCCNC(=N)N)C(N)=O)cc2)NC(=O)[C@H](Cc2ccccc2)NC(=O)[C@H](CCC(=O)O)NC(=O)[C@H]([C@@H](C)O)NC(=O)[C@@H]2CCCN2C(=O)[C@@H]2CCCN2C1=O
notes: also called 3BP-3321
B10: Hex-[Cys(3MeBn)-Pro-Pro-Thr-Glu-Phe-Cys]-Asp-Mamb-Arg-NH2 (peptide)
peptide: Hexanoyl-CPPTEFCD[3Amb]R-NH2
modifications: linker 1-7 via mXylylene
SMILES: CCCCCC(=O)N[C@H]1CSCc2cccc(c2)CSC[C@@H](C(=O)N[C@@H](CC(=O)O)C(=O)NCc2cccc(C(=O)N[C@@H](CCCNC(=N)N)C(N)=O)c2)NC(=O)[C@H](Cc2ccccc2)NC(=O)[C@H](CCC(=O)O)NC(=O)[C@H]([C@@H](C)O)NC(=O)[C@@H]2CCCN2C(=O)[C@@H]2CCCN2C1=O
notes: also called 3BP-3324
B11: Hex-[Cys(tMeBn(DOTA-AET))-Pro-Pro-Thr-Glu-Phe-Cys]-NH2 (peptide)
peptide: Hexanoyl-CPPTEFC-NH2
modifications: linker 1-7 via TBMB(SCH2CH2NH-DOTA)
SMILES: CCCCCC(=O)N[C@H]1CSCc2cc(CSCCNC(=O)CN3CCN(CC(=O)O)CCN(CC(=O)O)CCN(CC(=O)O)CC3)cc(c2)CSC[C@@H](C(N)=O)NC(=O)[C@H](Cc2ccccc2)NC(=O)[C@H](CCC(=O)O)NC(=O)[C@H]([C@@H](C)O)NC(=O)[C@@H]2CCCN2C(=O)[C@@H]2CCCN2C1=O
notes: also called 3BP-3653
B12: Pentyl-SO2-[Cys(tMeBn(DOTA-AET))-Pro-Pro-Thr-Glu-Phe-Cys]-OH (peptide)
peptide: Pentanesulfonyl-CPPTEFC-OH
modifications: linker 1-7 via TBMB(SCH2CH2NH-DOTA)
SMILES: CCCCCS(=O)(=O)N[C@H]1CSCc2cc(CSCCNC(=O)CN3CCN(CC(=O)O)CCN(CC(=O)O)CCN(CC(=O)O)CC3)cc(c2)CSC[C@@H](C(=O)O)NC(=O)[C@H](Cc2ccccc2)NC(=O)[C@H](CCC(=O)O)NC(=O)[C@H]([C@@H](C)O)NC(=O)[C@@H]2CCCN2C(=O)[C@@H]2CCCN2C1=O
notes: also called 3BP-3691
B13: Hex-[Cys(tMeBn(DOTA-AET))-Pro-Pro-Thr-Gln-Mpa-Cys]-OH (peptide)
peptide: Hexanoyl-CPPTQXC-OH
modifications: linker 1-7 via TBMB(SCH2CH2NH-DOTA); not fully specified (residue 6); printed as Hex-[Cys(tMeBn(DOTA-AET))-Pro-Pro-Thr-Gln-Mpa-Cys]-OH
notes: also called 3BP-3664

What was measured:
[1] = molecular target: T1, fibroblast activation protein (FAP) on FAP-expressing human WI-38 fibroblasts (human, UniProt Q12884 1-760); assay: competitive FACS, WI-38 cells, vs Cy5 tracer m3; A = pIC50 >8.0
T1 construct: also called human FAP

[2] = molecular target: Recombinant human FAP (R&D systems, #3715-SE) (human, UniProt Q12884 26-760); assay: cell-based or functional assay

| Binder | pIC50 Category (FACS) [1] | pIC50 Category (Activity) [2] |
| --- | --- | --- |
| B1 | > 8 pIC50 | > 8 pIC50 |
| B2 | > 8 pIC50 | > 8 pIC50 |
| B3 | > 8 pIC50 | 7.1 pIC50 and 8 pIC50 |
| B4 |  | > 8 pIC50 |
| B5 | > 8 pIC50 | > 8 pIC50 |
| B6 | > 8 pIC50 | > 8 pIC50 |
| B7 |  | ≤ 6 pIC50 |
| B8 | > 8 pIC50 | > 8 pIC50 |
| B9 | > 8 pIC50 | > 8 pIC50 |
| B10 | > 8 pIC50 | > 8 pIC50 |
| B11 | > 8 pIC50 | > 8 pIC50 |
| B12 | > 8 pIC50 | 7.1 pIC50 and 8 pIC50 |
| B13 | > 8 pIC50 | > 8 pIC50 |

Reference: patent publication US20230212549A1 (3B PHARMACEUTICALS, published 2023)
